The nature of the data set: yeast display, Sf9 membrane polyspecificity reagent, FACS + sequencing; frameworks hold sequencing errors. An outline of the steps: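 Sorting gates, low and high (top ~1%), were placed on anti-HA fluorescence to track expression and on streptavidin fluorescence to track reagent binding. A clone's polyreactivity label is taken from the gate it came out of. The reagent was 10% biotinylated, detergent-solubilized Sf9 membrane, applied for 1 hour at 4 °C to galactose-induced yeast display cells.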
As for “QVQLVESGGGLFQAGGSLRLSCAASGFTFRTYAMGWYRQAPGKERELVATIRRAGSTNYADSVKGRFTISRDNAKNTVYLQMNRLKPEDTAVYYCNAGFSHRSDNGIDGYYWGPGTQVTVSS”, the “polyreactivity (PSR sort gate)” value was “high polyreactivity”. On to “QVQLVESGGGLVQAGGRLRLSCAASGSIFPYYAMGWDRQAPGKERELVASINQSDGTRYYADSVKGRFTISRDNAKNTVYLQMNSLKPEDTAVYYCAADTTLQAFIRYRPMGSYDSWGQGTQVTVSS”, for which the “polyreactivity (PSR sort gate)” value is recorded as “low polyreactivity”. With “QVQLVESVGGLVQAGGSLRLSCAASGSIFRAYAMGWYRQAPGKERELVAAISRSGDSTYYADSVKGRFTISRDNAKNTVYLQMNSLKPEDTADYYCAAQRKPYVRPSGPYKRRDYWGQGTQVTVSS”, the “polyreactivity (PSR sort gate)” value is reported as “high polyreactivity”.

“QVQLVESGGGLVQAGGSLRLSCAASGRTFYVNARGWYREAPGKERELVATISRGTRTYYADSVKGRFTISRDNAKNTVYLQMNSLIPEDTAVYYCAADARPYESPYYYWGQGTQVTVSS”: the “polyreactivity (PSR sort gate)” value was “high polyreactivity”. Turning to “QVQLVESGGGLVQAGGSLRLSCAASGLTFYSYAMGWYRQAPGKERELVAAISNTGGTNYADSVKGRFTISRDNAKNNVYFQMTSLKPEDTAVYYCNRTFYHYLYRGYGYWGQGTQVTVSS”, the “polyreactivity (PSR sort gate)” value is recorded as “low polyreactivity”. Take “QLQLVETGGGIVQAAGSLRLSCAASGFTYNRYAKGWYRKAPGKERELVAAISRGGTTYADSVKGRFTISRDNAKNTVYLQMNSLKPEDTAVYYCNRLRYGYPQEFGYWGQGTQVTVSS”: the “polyreactivity (PSR sort gate)” value is “high polyreactivity”.

“QVQLVESGGGLVQAGGSLRLSCAASGIFYRNAMGWYRQAPGKERELVAAISWSGGSTYYADSVKGRFTISRDNAKNSVYLQMNSLKPEDTAFYYCAAVGGRYPSNVVGYYYWGQGTQVTVSS”: the “polyreactivity (PSR sort gate)” value is “high polyreactivity”.

Take “QVQLVDSAGGLVQAGGSLRLSCAASGRTYVVNTRGWSRQAPGKERELVASISSGTTNYADSVKGRFTISRDNAKNTVYLQMNSLKPVDTAVYYCNTDGGDHPTARYGYWGQGTQVTVSS”: the “polyreactivity (PSR sort gate)” value is on record as “high polyreactivity”. To “QVQLVESGRGLVQAGVSLRLSCAASGSIFDPNAMGWYRQAPGKERELVAAITSGGGSTYYADSVKGRFTISRDNAKNTVYLQMNSLKPEDTAVYYCNKVFVLQYKFVAWFDYWGQGTQVTVSS” belongs “low polyreactivity”; to “QVQLVESGGVLVQAGGSLRLSCAASGFTFVWYAMGWYRQAPGKERELVAAISRRGTRTYYADSVKGRFTISRDNAKNTVYLQMNSLKPEDTALYYCAASNGYQAVTYDYWGQGTQVTVSS”, “high polyreactivity”. On to “QVQLVESGGGLVQAGGSLRLSCAASGFNFGYYAMGWYRQAPGKERELVAAITSRGGSTYYADSVKGRFTISRDNAKNTDYLQMNSLKPEDTAVYYLAAYSQYLKRDYWGQGTQVTVSS”, for which the “polyreactivity (PSR sort gate)” value was “high polyreactivity”. To “QGQLVESGGGLVQAGGSLRLSCAASGRTFYVNAMGWYRQAPGKERELVAGISFSDGSTYYADSVKGRFTISRDNAKNSVYLQMNSLKPEDTAVYYCATVGAFDIYYGYGYWVQGTQVTVSS” belongs “low polyreactivity”; to “QVQLVESGGGLVQAGGSLRLSCAASGSTFPGNAMGWYRQAPGKERELVAAITSSGGSTDYADSVKGRFTISRDNAKNTVYLQMNSLKPEDTAVYYCNAKDAEHYERFNYWGQGTQVTVSS”, “low polyreactivity”; to “QVQLVDSGGGLVQAGGSLRLSCAASGRTFRTNAMGWYRQAPGKERELVAAISSNGGTTYYADSVKGRFTISRDNAKNTVYLQMNSLKPEDTAVYYCNIESQYLWPEFDYWGQGTQVTVSS”, “low polyreactivity”. As to “QVQLVESGGGLVQAGGSRRLSCAASGLICLLYDMGWYREAPGKERELVAAISTGGSTDYADSVKGRFTISRDNAKNTVYLPLNSLKPEDTAVYYCAADYYLYYLDGEDYWVQGTQVTVSS”, the “polyreactivity (PSR sort gate)” value is “high polyreactivity”.

Take “QVQIVESGGGLVQAGGSLRLSCAASGYIVRNAMGWYRQAPGKERELVAAISRRGGRTYYADSVKGRFTISRDNAKNTVYLQMHSLKPEDTAVYYCNKLPGTPRSLATGDYWGQGTQVTVSS”: the “polyreactivity (PSR sort gate)” value is on record as “high polyreactivity”. To “QVQLVESGVGLVQAVGSLRLSCAASGIIFPYYPMGWYRQAPGKERELVAAISTGGSTYYADSVKGRFTISRDNAKNTVYLQMNSLKPEDTAVYFCAARVARYRSTKRYDYWGQGTQVSVSS” belongs “high polyreactivity”; to “QVQLVESGGGLVQAGGSLRVSCAASGNIFGEYAMGWYRQAPGKERELVAAITNSGGRTHYADSVKGRFTISRDNAKNTVYLQMNSLKPEDTAVYYCAAPTKYRSRRYYWGQGTQVTVSS”, “high polyreactivity”; to “QVQLVESGGGLVQAGGSLRLSCAASGFTFKYYAMGWYRQAPGKEREFVAAISRSGGSTTYADSVKGRFTISRDNAKNTVYLQMNSLKPEDSAVYYCAVAYYTAYTPRDGEYWGQGTQVTVSS”, “high polyreactivity”. Turning to “QVQLVESGGGLVQAGGSLRLSCAASGFMFSRYGMGWYRQAPGKERELVAAISGSCGSTYYADSVKGRFTISRDNAKNTVYLQMKSLKPEDTAFYLCATAYSWSNSDWFAYSYDYWGHGTQVTVSS”, the “polyreactivity (PSR sort gate)” value was “low polyreactivity”. As for “QFQLVESGGGLVQAGGSHRLSCAASGFIFYYYAMGSYRQAPGKERELVAVLTESGSSTYYADSVKGRFTFSRDNAKNTVYLQMNSLKPVDTAVYYCNADFWPYTGKYDYWGQGTQVTVSS”, the “polyreactivity (PSR sort gate)” value is given as “low polyreactivity”. “QVQLEESGGGLVQAGFSLRLSCAASGRIFVPNAMGWSRPAPGKEGELVAAIRWTGGSTYYADSVQGRFTISRDNAKNTVYLQMNSLKPEDTAVSYCAARYAARRLTYFWPQYARYDYWGQGTQVTVSS”: the “polyreactivity (PSR sort gate)” value is “high polyreactivity”.

For the sequence “QVQLVESGGGLVQAGGSLRLSCAASGSIFALYAMGWYRQAPGKERELVAAISWRAGGTYYADSVKGRFTISRDNAKNTVYLQMNSLKPEDTAVYYCAAEISLYYYGDYEYWGVGTQVTVSS”, the “polyreactivity (PSR sort gate)” value is listed as “high polyreactivity”. As to “QVQLVESGAGLVQAGGSLRLSCAASGSIINRNAMGGYRQAPGKERELVAAITRRGGSTYYADSVKGRFTISRDNAKNTVYLQKYSLKPEDTAVYYCNAVKALSSWSYEYWGQGTQGTVSS”, the “polyreactivity (PSR sort gate)” value was “high polyreactivity”.

In the case of “QGLLVESGGGLVQAGGSLRLTCAASGFIFSGYAMGWYRPAPGKERELVAAISWSGSSTYYADSVKGRFTISRDNAKNTVYLQMNSLKPEDTAVYYCAAWYTSTRPYDYWGQGTQVTVSS”, the “polyreactivity (PSR sort gate)” value is recorded as “high polyreactivity”. With “QVQLVESGVGLLQAGGSLRLSCAAYGYTMGLYRQAPGKEREFVAAINQTGGSTSADSVKGRFTISRDNANNTVYLQLNSLKPEDTAVYYCAADISVYSDSHDVSINYRYDYWGLGTQVTVSS”, the “polyreactivity (PSR sort gate)” value is recorded as “low polyreactivity”.

With “QVQLVEAGGGLVQAGGSLRFSCAASGYIVRSYAMGWYRQAPGKERELVAAITRSGGSTYYADSVKGRFSISRDNAQNSVYLQMNSLKPEDTAVYYCTAKRFRTGFDYWGQGTQVTVSS”, the “polyreactivity (PSR sort gate)” value is “low polyreactivity”. “QVHLVESGGGLVQAGGSLRLSCAASGRTFRIYAMGWYRPAPGKERELVAAISRSSTSTYYADSVKGRFTISRDNAKNTVYLQMNSLKPEDTAVYYCAAVVTVQYSQPYDHWGQGTQVTVSS”: the “polyreactivity (PSR sort gate)” value is on record as “high polyreactivity”. With “QVQLVESGGGLVQAGGSLRLSCAASGFTFNANAMGWYRQAPGKERELVAVNTRSGGRTYYADSVKGRFTISRDNAKNTVYLQMNSLKPEDTAVYYCAKEGPSRVYQGTDSASDYWGQGTQVTVSS”, the “polyreactivity (PSR sort gate)” value is reported as “high polyreactivity”. Consider “QVQLVESGGGLVQAGGSLRLSCASSGRIFYYNTMGWYRQAPGKERELVAAINWSGTSTYYADSVKGRFTISRDNAKNTVYLQMNSLKPEDTAVYYCAAYYRYRVTYDYYYWGQGTQVTVSS”, for which the “polyreactivity (PSR sort gate)” value is “high polyreactivity”. To “QVQLVESVGGLVQAGGSLRLSCAASGFTFYVYAMGWYRQAPGKERELVAAISRGGSTYYADSVKGRFTISRDNAKNTVYLQMNSLKPEDTAVYYCNRVPYVSSSKVRYSNGFDYWGQGTLVTVSS” belongs “low polyreactivity”. Take “QVQLVESGGGLVQAGGSLRLSCAASGRIFRSYVMGWYRQAPGKERELVAVISKNGGTTYYADSVKGRFTISRDNAKNTVYFQRNSLKPEDTAVYYCAARRLGYYRKVKELDYWGQGTQVTVSS”: the “polyreactivity (PSR sort gate)” value is listed as “high polyreactivity”. Regarding “QVQLVESGGGLVQAGGSLRLTCAASGSTFTRYAMGWYRQAPGKERELVATIIFSGDRTYYADSVKGRFTISRDNAKNTVYLEMNSLKPEDTAVSYCNKYRYQWPYRRFDYWGQGTQVTVSS”, the “polyreactivity (PSR sort gate)” value is on record as “high polyreactivity”.

For “QDQLVESGGGLVQAGGSLRLSCAASVSIFGYYAMGWYRQAHGKERELVADITSSGSTYYADSVKGRFTISRDNAKNTVYLQMNSLKPEDTAVYYCAADQYYLGSIDGFEYWGQGTQVTVSS”, the “polyreactivity (PSR sort gate)” value is “low polyreactivity”. As for “QFQLVESGGGLVQAGGSLRLSCAASGRTFKYNAMGWYRQAPGKERELVAAISSTGSTNYADSVKGRFTISRDNAKNTVYLQMNSLKPEDTAVYYSAARGLPSNYYYYVHGYIMYYWGQGTQVTVSS”, the “polyreactivity (PSR sort gate)” value is reported as “low polyreactivity”. To “QVQLVESGGGLVQAGGSLRLSCAASGRIFQGYVMGWYRQAQGQERELVAAITTGGSTYYADSVKGRFTISRDNAKNTVYLQMNSLKPEDTAVYYCNAVVYVSGYNPYIFGYWGQGTQVTVSS” belongs “low polyreactivity”; to “QVHLVESGGALVQAGGSLRLSCASSGRTFGWNVMGWYRQAPGKERELVAAISGSGGSTYYADSLKGRFTISRDNAKNTVYLQMNSLKPEDTAVYYCAALYGPGREYDYWGQGTQVTVSS”, “low polyreactivity”. With “QVQLVESGGGLVQAGGSLRLSCAASGSIFWYYAMGWYRQAPGKERELVADITSTGGSTYYADSVKGRFTISRDNAKNTVYLQMNSLKPEDTAVYYCAADNTYSEEDYWGQGTQVNVSS”, the “polyreactivity (PSR sort gate)” value is reported as “high polyreactivity”. “QVQLVESGGGLVQAGGSLRLSCAASGYIFDIYAMGWYRQAPGKEMQLVAVITRSGGGTYYADSVKGRFTISRDNAKNTVYLQMNSLKPEDTAVYYCAAESFVYGGSDYDYWGQGTQVTVSS”: the “polyreactivity (PSR sort gate)” value is “low polyreactivity”. To “QVQLVESGGGLVQAGGSLRLSCAASGRTFTYNVMGWYRQAPGKERELVAAITSGGSTYYADSVKGRFTISRDNAKNTVYLQMNSLKPEDTAVYYGAARGYSYKWDNRYDYWGQGTQVTVSS” belongs “high polyreactivity”.

Values taken from the nanobody polyreactivity screen of Harvey et al. (2022).
